In PMC2583301 (The Journal of Biological Chemistry, 2008):
Substitutions are numbered along the chain they refer to. Names may count otherwise. Read-outs that look alike come from different tables or passages of the source. Values belong to the binder of their own block, whether it stands above or below them.

Experiments:
[1] = target: T1, H2A/H2B dimer (major type, wild type) (Xenopus laevis, UniProt P06897;P02281); test: other fluorescence titration
H2A.Z/H2B dimer = H2A.Z/H2B dimer ( | Xenopus laevis, UniProt P0C0S5;P02281); test: other fluorescence titration
[2] = target: H2A refolded in the absence of H2B (Xenopus laevis, UniProt P06897 1-130); test: other fluorescence titration
H3 alone = H3 alone (Xenopus laevis, UniProt P84233 1-136); test: other fluorescence titration
[3] = target: T1, H2A/H2B dimer (major type, wild type); test: other fluorescence titration; remark: listed apart in the source
[4] = target: T1, H2A/H2B dimer (major type, wild type); test: other fluorescence titration; remark: listed apart in the source
[5] = target: T1, H2A/H2B dimer (major type, wild type); test: other fluorescence titration; remark: listed apart in the source
[6] = target: T1, H2A/H2B dimer (major type, wild type); test: native gel or EMSA

- Kd [1]: 1.2 nM
- Kd (H2A.Z/H2B dimer): 7.4 nM
- Kd [2]: 3.5 nM
- Kd (H3 alone): > 10000 nM
- Kd [3]: 7.8 nM
- Kd [4]: 21.6 nM
- Kd [5]: 7.8 nM
B1: yNap1 C200A/C249A/C272A labelled with Alexa dye at Cys-414 (yNap1m*) (natural protein)
chain: MSDPIRTKPKSSMQIDNAPTPHNTPASVLNPSYLKNGNPVRAQAQEQDDKIGTINEEDILANQPLLLQSIQDRLGSLVGQDSGYVGGLPKNVKEKLLSLKTLQSELFEVEKEFQVEMFELENKFLQKYKPIWEQRSRIISGQEQPKPEQIAKGQEIVESLNETELLVDEEEKAQNDSEEEQVKGIPSFWLTALENLPIVADTITDRDAEVLEYLQDIGLEYLTDGRPGFKLLFRFDSSANPFFTNDILAKTYFYQKELGYSGDFIYDHAEGAEISWKDNAHNVTVDLEMRKQRNKTTKQVRTIEKITPIESFFNFFDPPKIQNEDQDEELEEDLEERLALDYSIGEQLKDKLIPRAVDWFTGAALEFEFEEDEEEADEDEDEEEDDDHGLEDDDGESAEEQDDFAGRPEQAPECKQS
modifications: Alexa-546 or Alexa-488 on Cys-414

- binding result [6]: binds
B2: yeast nucleosome assembly protein 1 (yNap1), wild type (natural protein)
chain: B1 chain with A200C, A249C, A272C
